In patent US8455435B2, “Remedies for ischemia” (Ludwig-Maximilians-Universitat Munchen, priority 2006, dated 2013):
“Also recorded” adds a separate entry of the source.

Assays:
cortical infarct = conditions: permanent middle cerebral artery occlusion; cited from earlier work
CXCR4 = CXCR4 (Mus musculus, UniProt P70658); conditions: 48 hours after MI; cited from earlier work
[1] = tested on: CD45+/CD34+ and CD34+/CXCR4+ cells in the heart; test: Flow cytometry of non myocyte cardiac cells after MI; format: in vivo, C57BL/6 and CD26 k.o. mice; conditions: AMD3100 1.25 mg/kg i.p. in G-CSF treated CD26 k.o. and G-CSF-DipA animals
Procedure: FIGS. 27A, 27C, 27E, Tab. S 3A; Nr. 2: FIGS. 27B, 27D, 27F, Tab. S 3B). Animal care and all experimental procedures were performed in strict accordance to the Guide for the Care and Use of Laboratory Animals published by the US National Institutes of Health (NIH publication No. 85-23, revised 1996). Mice were randomly divided into the following groups: […] G-CSF and/or Diprotin A treatment was initiated immediately after the surgical procedure. Cardiac cells from sham operated and infarcted hearts of wt and CD26 k.o. mice were analyzed 48 hours after MI (n=6). Therefore, a “myocyte-depleted” cardiac cell population was prepared, incubating minced myocardium in 0.1% collagenase IV (Gibco BrL) 30 min at 37° C., lethal to most adult mouse cardiomyocytes (Zhou et al., 2000). Cells were then filtered through a 70-μm mesh. […] Cells were stained with CD45-PerCP, CD34-FITC, CD26-FITC, c-kit-PE, Sca-1-PE, CXCR4-PE Flk-1, Flk-PE, CD3-biotin, CD45R/B220-biotin, CD11b-biotin, TER-119-biotin, Ly-6G-biotin Abs (all from BD Pharmingen) and subjected to flow cytometry using […] flow cytometer and Expo32 ADC Xa software (Beckman Coulter). For evaluation of SDF-1-CXCR4 dependent homing, G-CSF stimulated CD26 k.o. mice were treated i.p. with the CXCR4-antagonist AMD3100 (1.25 mg/kg). Cardiac cells were analyzed 8 hours after the last AMD3100 application. Each analysis included 50000 events.

[2] = tested on: CD45+/CD34+ and CD45+/CD34- cell populations in peripheral blood; test: Flow cytometry of peripheral blood mononuclear cells after PTH or G-CSF in healthy mice; format: in vivo, C57BL/6 mice; conditions: PTH day 6 and day 14; G-CSF day 6
Procedure: (§1) For the experiments healthy age- and sex-matched (male, 8-12 weeks of age) C57BL/6 mice (Charles River) were used. Animal care and all experimental procedures were performed in strict accordance to the German and National Institutes of Health animal legislation guidelines and were approved by the local animal care and use committees.
(§2) Mice were divided into the following groups: 1) administration of saline daily for 6 days, sacrificed at day 7 (n=6). 2) administration of PTH (Bachem) daily for 6 consecutive days (80 μg per kg body weight per day, intraperitoneally), sacrificed at day 7 (n=6). 3) administration of PTH daily for 14 consecutive days, sacrificed at day 15 (n=6). 4) administration of G-CSF (Amgen Biologicals) daily for 5 consecutive days (200 μg per kg body weight per day, intraperitoneally), sacrificed at day 6 (n=6).
(§3) at day 6, 1 ml of peripheral blood was harvested from each mouse by aspirating the carotid artery. Bone marrow cells were obtained by flushing the tibias and femurs from the euthanized mice. Mononuclear cells were separated by density-gradient centrifugation using 1.077 g/mL Histopaque solution (Sigma Chemicals), purified and resuspended in phosphate-buffered saline (PBS) containing 1% bovine serum albumin. Cells were incubated for 40 minutes in the dark at 4° C. with following fluorescein-isothiocyanate (FITC), phycoerythrin (PE), and peridinin-chlorphyll-protein (PerCP) conjugated monoclonal antibodies: CD45-PerCP, C34-FITC, CD31-PE, Sca-1-PE and c-kit-PE (all from BD Pharmingen). Isotype-identical antibodies (BD Pharmingen) served as controls. Cells were analyzed by 3-color flow cytometry using a Coulter® Epics® XL-MCL™ flow cytometer (Beckman Coulter). Each analysis included 20000 events. The absolute number of antigen-positive cells per ml of whole blood was calculated by multiplying the percentage of antigen-positive cells with the total number of mononuclear cells per ml of blood detected by the conventional hematological cell analyzer. The number of lymphocytes together with the number of monocytes comprised the total number of mononuclear cells.

CD45+/CD34+ progenitors = test: FACS of peripheral blood, stem cell mobilization by G-CSF; format: in vivo, C57BL/6 and CD26 k.o. mice; conditions: G-CSF 100 μg/kg/d; wt (+/-Diprotin A) and CD26 k.o. mice vs saline
Procedure: 10 weeks old CD26 k.o. (n=6) were either treated with G-CSF (100 μg/kg/d) or saline daily for 6 days and or C57BL/6 mice (n=6) were treated with saline, G-CSF, Diprotin A or both daily for 6 days. Cells were separated as described previously (Deindl et al., 2006). The following monoclonal antibodies were used: CD45-PerCP, CD34-FITC, CD31-PE, c-kit-PE, Sca-1-PE, CXCR4-PE, Flk-PE, CD3-biotin, CD45R/B220-biotin, CD11b-biotin, TER-119-biotin, Ly-6G-biotin (all from BD Pharmingen). Matching isotype antibodies (BD Pharmingen) served as controls. Cells were analyzed by 3-color flow cytometry using a Coulter® Epics® XL-MCL™ flow cytometer (Beckman Coulter). Each analysis included 50000 events.

[3] = tested on: TUNEL positive cardiomyocytes; test: TUNEL staining of apoptotic cardiomyocytes in the border zone after MI; format: in vivo, wt and CD26-/- mice; conditions: 2 days after MI, wt and CD26-/- animals, vs saline
Procedure: (§4) Mice were randomly divided into the following groups: Sham operated animals (n=20), infarcted wildtyp (n=20) (wt) receiving either saline (0.9% NaCl), G-CSF (100 μg/kg/d i.p.), Diprotin A (70 μg/kg/twice per day) or G-CSF+Diprotin A and CD26 k.o. animals (n=20) receiving either saline (0.9% NaCl) or G-CSF (100 μg/kg/d) for up to 6 days. G-CSF and/or Diprotin A treatment was initiated immediately after the surgical procedure.
(§5) For immunostaining the following primary antibodies were used: CD45 (rat anti-mouse, BD Pharmingen), CD31 (goat anti-mouse, Santa Cruz), Ki67 (goat anti-mouse, Santa Cruz). AEC was used as chromogen. Double staining for CD31 and Ki67 was performed using DAB as additional chromogen (all from Dako). Apoptotic cells were detected according to Harada et al. 2005 (Harada et al., 2005) using the TUNEL assay (ApopTag, MP Biomedicals). Digital photographs were taken at a magnification of ×400, and 10 random high-power fields (HPF) from the borderzone of each heart sample (n=3) were analyzed. Quantification of blood vessels was assessed by CD31^+ immunohistochemistry in the granulation tissue at the border zone. The numbers of CD31^+ capillaries were quantified from 10 random high power fields (HPF) with 400× magnification.

infarcted heart = test: Histology and immunohistochemistry after MI: infarct size, LV wall thickness, CD31+ capillaries (G-CSF, Diprotin A); format: in vivo, C57BL/6 and CD26 k.o. mice
Procedure: (§6) MI was induced in 10 weeks old male CD26 k.o. or C57BL/6 mice by surgical occlusion of the left anterior descending artery (LAD) as described previously (Deindl et al., 2006). Experiments concerning survival and cardiac function were performed by two different operators (Nr. 1: FIGS. 27A, 27C, 27E, Tab. S 3A; Nr. 2: FIGS. 27B, 27D, 27F, Tab. S 3B). Animal care and all experimental procedures were performed in strict accordance to the Guide for the Care and Use of Laboratory Animals published by the US National Institutes of Health (NIH publication No. 85-23, revised 1996).
as §4
At day 6 (n=6) and day 30 (n=6), hearts were excised. After fixation in 4% phosphate buffered formalin the hearts were cut transversally into 2 mm thick slices and embedded in paraffin. 4 μm thick sections were cut and mounted on positively charged glass slides. […] Infarct size and wall thickness were determined according to Deindl et al. (Deindl et al., 2006).
as §5, with “AEC was used as chromogen. Double staining for CD31 and Ki67 was performed using DAB as additional chromogen (all from Dako).” left out

[4] = tested on: CD45+/CD34+ and CD45+/CD34- cell populations in bone marrow; test: Flow cytometry of bone marrow cells after PTH or G-CSF in healthy mice; format: in vivo, C57BL/6 mice
Procedure: as §1, §2, §3

myocardial function = test: Pressure volume relations four weeks after MI (G-CSF, Diprotin A); format: in vivo, C57BL/6 and CD26 k.o. mice; conditions: day 30, CD26 k.o. mice
Procedure: as §6, §4
For evaluation of pressure-volume relationships in vivo, mice were anesthetised with thiopental (100 mg/kg, i.p.), intubated and ventilated (MiniVent, HUGO SACHS, Freiburg, Germany). After catheterization via the right carotid artery an impedance-micro manometer catheter (Millar Instruments, Houston, Tex.) was introduced into the left ventricle. Raw conductance volumes were corrected for parallel conductance by the hypertonic saline dilution method as described previously (Zaruba et al., 2008). Heamodynamic measurements as well as data analyses were performed by a blinded person using PVAN analysis software (HUGO SACHS, March, Germany).

myocardial infarction = test: Survival after MI (Kaplan-Meier; G-CSF, Diprotin A); format: in vivo, C57BL/6 and CD26 k.o. mice
Procedure: as §6, §4
Results were expressed as mean±s.e.m. Multiple group comparisons were performed by one-way analyses of variance (ANOVA) followed by the Bonferroni procedure for comparison of means. Comparisons between two groups were performed using the unpaired Student's t-test. Data were considered statistically significant at a value of p≦0.05. Mortality was analyzed by the Kaplan-Meier-method.

Sequence of CXCR4 (P70658 whole entry): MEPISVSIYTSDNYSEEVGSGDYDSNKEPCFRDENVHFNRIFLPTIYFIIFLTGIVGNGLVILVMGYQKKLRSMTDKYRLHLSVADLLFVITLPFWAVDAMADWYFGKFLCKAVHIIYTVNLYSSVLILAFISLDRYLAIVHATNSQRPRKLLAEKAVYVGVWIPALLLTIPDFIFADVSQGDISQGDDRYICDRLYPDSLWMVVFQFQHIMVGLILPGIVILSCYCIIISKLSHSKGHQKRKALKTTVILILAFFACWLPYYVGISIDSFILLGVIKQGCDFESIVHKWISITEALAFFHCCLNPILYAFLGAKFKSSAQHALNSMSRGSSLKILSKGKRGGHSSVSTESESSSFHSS

In the case of “PTHrP(1-34): parathyroid hormone-related peptide fragment 1-34, SEQ ID NO:7”, the “decrease of cortical infarct size” value (cortical infarct) is given as “up to 47%”.

For `c1cc(CN2CCCNCCNCCCNCC2)ccc1CN1CCCNCCNCCCNCC1` [AMD3100], the “decrease of bone marrow derived cell recruitment after MI” value (CXCR4) is given as 64% and the “recruitment of CD34+/CXCR4+ cells into the heart after MI” value [1] is given as “diminished the number; also recorded: reversed the recruitment”.

B1: G-CSF: granulocyte colony stimulating factor (Amgen Biologicals) (protein, UniProt P09919 31-207, looked up)
Granulocyte …: TPLGPASSLPQSFLLKCLEQVRKIQGDGAALQEKLVSECATYKLCHPEELVLLGHSLGIPWAPLSSCPSQALQLAGCLSQLHSGLFLYQGLLQALEGISPELGPTLDTLQLDVADFATTIWQQMEELGMAPALQPTQGAMPAFASAFQRRAGGVLVASHLQSFLEVSYRVLRHLAQP
With B1 the “subtypes of CD45+/CD34+ and CD45+/CD34- cells in peripheral blood” value [2] was “significant increase”, the “mobilization of CD45+/CD34+ progenitors in peripheral blood” value (CD45+/CD34+ progenitors) was “significantly increased mobilization” and the “number of TUNEL positive cardiomyocytes in the border zone” value [3] was “decreased apoptotic cell death; also recorded: reduced the number”. For the same molecule, the “number of CD31+ capillaries at the infarct borderzone” value (infarcted heart; 6 days after MI, CD26 k.o. animals) was “Increased neovascularization; also recorded: significantly increased number”, the “size of LV infarction (scar tissue)” value (infarcted heart; day 30, CD26 k.o. animals) was “smaller” and the “thickness of the left ventricular wall” value (infarcted heart; day 30, CD26 k.o. animals) was “significantly improved thickness; also recorded: significantly ameliorated”. For the same molecule, the “increase of CD45+/CD34- cells in bone marrow compared to saline treated mice” value ([4]; G-CSF treatment, p<0.001) was 18.9%, the “subtypes of CD45+/CD34- cells in bone marrow” value ([4]; PTH day 6, G-CSF) was “significantly decreased” and the “subtypes of CD45+CD34+ cells in bone marrow” value ([4]; PTH day 6 or day 14, G-CSF vs control group) was “significant decrease”. For the same molecule, the “arterial afterload (arterial elastance)” value (myocardial function) was “markedly reduced”, the “diastolic heart function (isovolumetric relaxation parameter Tau)” value (myocardial function) was “improved diastolic heart function” and the “ventricular dilation measured by enddiastolic volumes” value (myocardial function) was “attenuated ventricular dilation”. The survival rate (myocardial infarction; CD26 k.o. mice) was 75% and the survival rate (myocardial infarction; wt animals) was 55%.
